These results are taken from patent US20070293659A1.

The assay deals with Human interleukin-2 (IL-2) (human) (UniProt P60568). The assay is described as follows: SPR (BIAcore 3000), data not shown. (In SPR one partner is held on a chip, and binding of the other changes the refractive index at the surface.)

As a reminder, the Kd is the equilibrium constant for the complex coming apart. Read a high Kd as a looser complex. For “oriented (Or) Fab'602: Fab' fragment of MAB602 biotinylated in the hinge region”, the Kd was 0.1 nM.
